Seven substances from patent US6693076 can be followed below.

Assay [1] concerns the target 125I-[Threonine59]IGF-I binding sites in adult rat brain sections (level of the cerebellum and brain stem) (rat). In words: displacement of 0.01 nM 125I-[Thr59]IGF-I from rat brain sections; competitor at 400 pM.
The target is the same in assay [2]. The experiment in a line: displacement of 0.01 nM 125I-[Thr59]IGF-I from rat brain sections; competitor at 4 pM.
Assay [3] addresses IGF-I receptor in homogenized adult rat brain tissue (cerebral cortex and cerebellum) (rat) (UniProt P24062). The experiment in a line: displacement of 20 pM 125I-[Thr59]IGF-I from homogenised rat brain tissue; competitor at 100 µM; SD 1.4.
Assay [4] shares this target. The experiment in a line: displacement of 20 pM 125I-[Thr59]IGF-I from homogenised rat brain tissue; competitor at 100 µM; SD 20.
For assay [5], the target named is 125I-[Threonine59]IGF-I binding sites in adult rat brain sections (level of the cerebellum and brain stem) (rat). The experiment in a line: displacement of 0.01 nM 125I-[Thr59]IGF-I from rat brain sections; competitor at 400 nM.
Assay [6] has the same target. In words: displacement of 0.01 nM 125I-[Thr59]IGF-I from rat brain sections; competitor at 200 nM.
Assay [7] has as its target IGF-I receptor in homogenized adult rat brain tissue (cerebral cortex and cerebellum) (rat) (UniProt P24062). The experiment in a line: displacement of 20 pM 125I-[Thr59]IGF-I from homogenised rat brain tissue; competitor at 40 nM; SD 0.7.
Assay [8] shares this target. In words: displacement of 20 pM 125I-[Thr59]IGF-I from homogenised rat brain tissue; competitor at 1 mM; SD 1.8.
For assay [9] the target is unchanged. The experiment in a line: displacement of 20 pM 125I-[Thr59]IGF-I from homogenised rat brain tissue; competitor at 100 µM; SD 6.
For assay [10] the target is unchanged. The experiment in a line: displacement of 20 pM 125I-[Thr59]IGF-I from homogenised rat brain tissue; competitor at 100 µM; SD 21.

Sequence of IGF-I receptor in homogenized adult rat brain tissue (cerebral cortex and cerebellum) (rat) (P24062 31-1370): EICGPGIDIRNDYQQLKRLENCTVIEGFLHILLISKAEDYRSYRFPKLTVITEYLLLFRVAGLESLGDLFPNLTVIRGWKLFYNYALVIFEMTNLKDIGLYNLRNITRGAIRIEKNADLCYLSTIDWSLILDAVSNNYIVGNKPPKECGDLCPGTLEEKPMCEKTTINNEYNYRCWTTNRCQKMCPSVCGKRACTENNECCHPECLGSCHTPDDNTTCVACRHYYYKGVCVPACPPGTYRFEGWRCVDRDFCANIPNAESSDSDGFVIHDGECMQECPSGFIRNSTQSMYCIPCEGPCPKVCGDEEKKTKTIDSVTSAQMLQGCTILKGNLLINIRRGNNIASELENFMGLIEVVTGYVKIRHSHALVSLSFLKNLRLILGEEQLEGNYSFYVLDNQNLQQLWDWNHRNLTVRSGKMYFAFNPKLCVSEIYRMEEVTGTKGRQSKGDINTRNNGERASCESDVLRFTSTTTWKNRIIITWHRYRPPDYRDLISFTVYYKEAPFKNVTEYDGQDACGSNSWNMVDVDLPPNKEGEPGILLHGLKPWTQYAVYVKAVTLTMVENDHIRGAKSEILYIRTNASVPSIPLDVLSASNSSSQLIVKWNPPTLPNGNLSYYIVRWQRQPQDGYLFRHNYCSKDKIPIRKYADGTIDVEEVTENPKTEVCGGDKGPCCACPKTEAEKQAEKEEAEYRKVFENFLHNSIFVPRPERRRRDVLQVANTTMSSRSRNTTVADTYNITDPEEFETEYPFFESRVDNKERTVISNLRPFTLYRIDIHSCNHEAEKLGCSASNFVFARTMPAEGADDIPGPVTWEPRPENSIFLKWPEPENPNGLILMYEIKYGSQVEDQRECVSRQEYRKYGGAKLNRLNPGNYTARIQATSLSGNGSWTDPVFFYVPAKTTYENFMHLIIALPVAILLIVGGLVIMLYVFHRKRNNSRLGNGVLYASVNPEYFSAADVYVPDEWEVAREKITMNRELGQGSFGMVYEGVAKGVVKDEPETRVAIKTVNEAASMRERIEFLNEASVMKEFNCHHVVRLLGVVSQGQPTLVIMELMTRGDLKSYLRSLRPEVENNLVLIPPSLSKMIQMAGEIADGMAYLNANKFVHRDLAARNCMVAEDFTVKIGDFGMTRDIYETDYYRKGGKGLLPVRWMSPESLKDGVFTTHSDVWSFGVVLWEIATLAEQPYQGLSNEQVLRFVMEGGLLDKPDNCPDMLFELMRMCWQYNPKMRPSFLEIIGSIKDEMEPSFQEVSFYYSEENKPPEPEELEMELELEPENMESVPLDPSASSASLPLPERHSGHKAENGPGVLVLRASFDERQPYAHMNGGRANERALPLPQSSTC
Sequence of IGF-II (Somatomedin-A) (P01344 25-91): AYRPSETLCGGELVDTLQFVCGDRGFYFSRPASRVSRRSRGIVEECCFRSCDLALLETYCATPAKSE

For “Human IGF-I (Somatomedin-C) (from UniProt P05019 49-118) (ligand)”, the percent max. bound is 30% in [1] and 91% in [2].

In [3], IGF-I(30-41) (peptide) registered a percent max. bound of 94%.

For IGF-I(62-70) (peptide), the percent max. bound in assay [4] was 83%.

Regarding “IGF-II (Somatomedin-A) (from UniProt P01344 25-91) (ligand)”, the percent max. bound in assay [5] was 23%; in assay [6], 50%; in assay [7], 92.1%.

In the case of IGF-II(33-40) (peptide), the percent max. bound in assay [8] turned out to be 92%.

As to IGF-II(54-67) (peptide), in [9], the percent max. bound was found to be 94%.

In assay [10], IGF-II(62-67) (peptide) registered a percent max. bound of 83%.
